Assay results as given in the DeepSol protein solubility set.

Assay: soluble on expression in E. coli; label from the status in PepcDB or PDB records

Sequence | soluble on expression in E. coli
MTARTITDVITRPLPPLPLTAAASAEVLPDWAQPARRHPAAQPWPENLTRMAVGVVDSTGATGWFGPVSATVARMVFDQVAPAVIGRELAAWRAMASLAPHGRHRQGAHLRLAVSAVELAAWDLRSHATGVPVGALLAGERRERIPVYATALGIDIDHPLAPDIAAWLVDEGFWAQKWGLPGAARGETPRADAARLRRLREAAGERARIGVDVGGRWPADYARQMLPVLAEAGVCWVEEPGPISDADLARHGLARAAGEHDYEPTDQLRTLGGDIQIWQPDPTWCGGLAHTLSMVELAARLNIRSLPHGSGLAAALALAASAPAAAVPAIEYHLTLEPLRQDHQLDPLVPAAGHLDARTAAGLTSGYRFGEGDAGAAA | soluble
MTASLMNTGKKNPFRDTQQGEYGNGDRNDWVMQASCRNGDPDALFVRGAEQRRAAAICRQCPVMIQCRADALDNKVEFGVWGGLTERQRRAILRKNPHVDSWEQFFAQGGELLGM | not soluble
MTAYINQEAAAKLDEVFPLAELALKAYGPEFQGELSLLTHSENSTYLVNAFSGQRFVMRVHRAHYHSRTAIESELAWLDALADEGMEVPKAIAGRDGAKVQTIGDGHAERREVVLFHWINGYQPDQSQQESLIQGFRRLGEITAGLHIHARQWQRPHWFERRLMVGAHAAWGNWQKAPYLDKPGAAIIGKALDKVRMELNEYGNAADLFGLIHADLRLTNLLVEEEITRIIDFDDCGFSWFMHDLAAAVSFIEHSPCLNEWVGSWVNGYSTVLPLSAADHAVIPALITQRRVQLLAWTGTHQGAPQADGLGNIWVVQTIELCEKYLANTLLDCKSIS | not soluble
MTDGSMDIDAMLEGGLEMAKNDRSQSRQRSPARSNRSRPSRVPIQSDVD | not soluble
MTDILIDNTATETVRTLIRAFPLVPVSQPPEQGSYLLAEHDTVSLRLVGEKSSVIVDFASGAAQYRRTKGGGELIAKAVNHTAHPTVWDATAGLGRDSFVLASLGLAVTAFEQHPAVACLLSDGIRRALLNPETQNTAAHINLHFGNAAEQMPALVQTQGKPDIVYLDPMYPERRKSAAVKKEMTYFHRLVGEAQDEAALLHTARQTAKKRVVVKRPRLGEHLAGQDPAYQYTGKSTRFDVYLPYGTDKGLEHHHHHH | soluble
MTDKVIATHNGNFHADDVFSIAALKNIFPSFKLIRTRDLEVIGKADIVIDVGGEYDADAGRFDHHQRGGAGERENGIPYSSFGLIWQKYGLAICQGNQEVANSVDAGLVSTIDAIDCGHVEGVAQGISLSQTISMFNPTWQEDSHFDTCFDEAVDFASRVLTRFIASASGGINAKDIVAKAIDNAEDSRVIVLEKYTPWKRTVHALSEEALYMVYPSPSGQWRIQTVPVEPGSFEDRKPLPKQWAGLSDDALKEVTGIDDAMFCHNGLFIAGAESFESTMKMASIALQALEHHHHHH | soluble
MTDLEHAVESNRRAWDASADSHLRGGGWQELSLAVQETGFSCLDETLAGVLRNLDLAGKAAVQVGCNNGREVLSLYAFGVARAVGIDQSAAFLAQARQLAERSPHQPRFVEANAYELPAELNGQFDLLLITIGVLNWMPDIARFFASVSGLLKPGGQLAIYETHPFLEMLEPESERPFELRNDYFTDTPHVSREAIVYEGSGSDTGIASYWYVHPLGDILGGLLGAGLRLSHFKEYPHSNREELYDLYEDGPLAIPMCYTLVAVKA | soluble
MTDNNTALKKAGLKVTLPRLKILEVLQEPDNHHVSAEDLYKRLIDMGEEIGLATVYRVLNQFDDAGIVTRHNFEGGKSVFELTQQHHHDHLICLDCGKVIEFSDDSIEARQREIAAKHGIRLTNHSLYLYGHCAEGDCREDEHAHEGK | soluble
MTDSQSTQMGRGRHAKRNKSTASVGSKKNRTQSTASGKFQPSDGFTTFIVAVSRLGKQGQEFTWHDLRKVYHKETQRQLTAEELNAIFSSKNLTKREIFELPKVKRFMTSMDGSMMCRFRLIADPQEVYDDDLPPLMSTSVETDVITEDTSSDHSQAVSPSSGNPIAISTDCDDKAAGPTSDLSKSDNSPSQRSLAQQSSMTDDEGWVSGKDVRSENSSPVEDKDEVDGSKMEMEDDVFEEDQRIAAESDQVDSAMVADVIIVEEAKVEKLFKAQEIVAPIVLTESIDAAFEAVIQSVSHADATLSMTQNASEEAKVHATPPLPAERKTMVSAELANGKPIKHLIEKFDAGVNFAEHKPKSIYAQVLEEIGGSAPRVDEVFSASKKEEHAETEVTNVIFRSTSTHSSIIANGKEQLAEFVAEQEARQKVTTPNPVKEETENAFCAKEQSSMSSLDREYFASKTKLNEDLFAELGVKDTDGFQLKTVDSNGSGPGSSEIITVIETPLKDDHRKRADSVESDADVPYSLCSEDEAEPMTMIDKSMKVSQSAEQLSPVKEEQKAKTVVVNVELDGNRADPTIKDRIAALQAIVSKQHVPIAKVDSVDDDVRILSRTEELQHMALEAKPSPQALGALRRRHVRFMRGCCVVQ | soluble
MTEFELPPKYITAANDLRSDTFTTPTAEMMEAALEASIGDAVYGEDVDTVRLEQTVARMAGKEAGLFCVSGTLSNQIAIRTHLMQPPYSILCDYRAHVYTHEAAGLAILSQAMVVPVVPSNGDYLTLEDIKSHYVPDDGDIHGAPTRLISLENTLHGIVYPLEELVRIKAWCMENGLKLHCDGARIWNAAAQSGVPLKQYGEIFDSISICLSKSMGAPIGSVLVGNLKFVKKATHFRKQQGGGIRQSGMMARIALVNINNDWKSQLLYSHSLAHELAEYCEAKGIPLESPADTNFVFINLKAARMDPDVLVKKGLKYNVKLMGGRVSFHYQVTRDTLEKVKLAISEAFDYAKEHPFDCNGPTQIYRSESTEVDVDGNAIREIKTYKY | soluble
MTEIVERMKKKNIVKPIVYGNTATPFGYKRDSDQHTHQWTVFLKPYLIEDPTKWIRKVQFKLHESYAVPYRVVEKPPYEVTETGWGEFEIQIRIYFVDPNEKPITAFHYLRLFQPTIELPSGNQIVCMEFYDEIIFQEPTVQMYKALQASDGKRPDKQAFLNDIEQVKTRTRELGEVAQKEIAAEIEDLRESLKDAHKMIVKYNTELAEQE | not soluble
MTEKQFKLTVQDNTNIEVKVNFTDVDSKGIIHIFHGMAEHMERYDKLAHALSKHGFDVIRHNHRGHGINIDESTRGHYDDMKRVIGDAFEVAQTVRGNVDKPYIIIGHSMGSVIARLFVETYPQYVDGLILSGTGMYSLWKGLPTVKVLQLITKIYGAEKRVEWVNQLVSNSFNKKIRPLRTQSDWISSNPIEVDNFIKDPYSGFNVSNQLLYQTAYYMLHTSQLKNMKMLNHAMPILLVSGYDDPLGDYGKGILKLANIYRKAGIKNVKVNLYHHKRHEVLFEKDHDKIWEDLFKWLNQFYKK | not soluble
MTENALLLLNLGSPDSTRVEDVRRYLDQFLMDPYVVDLPWPLRRLLVSLILIKRPAESAHAYSSIWWDEGSPLIVLSRRLQEAMKPHWPHGPVELAMRYGQPAIEKVLLDLARRGIRRVTLAPLYPQFADSTTTTAEQEVRRVIAAHRLGLEVSTLPPFYDQPVYLDALVESVRPYLQQPHDHLLLSFHGLPERHIRKLVKDPAHDLLAENSRNVSPEALALCYRSQCLRTAEAFAERAGLEQGRWSVSFQSRLGRAKWIEPYTDAKLDELVQRGVKRLLVMCPAFVADCIETLEEIGMRGREQFISAGGEDLVLIPCLNDHPAWVGALAEMSGRLARPL | not soluble
MTENQNGKVDPVAIRELISQGIPMKRKESEIKRSQSEEQCVESECPNDEPMSKDFSRVSRRERRKSDKGDYESLFICRNTLKNRKTIYIAKELQDTLAEIVMSMRNRDMTIGIYVENIILHHLETYKDEINRLAEMKFRKLL | not soluble
MTEPVHPIADLTDSLLGWASQTELELAQRLAGGGLVIAAGLSDDELERIERLYGIFLTRQLLAGADFAALIGVSPALTLTTLVARARRVVEIDDFVSEFLGGLGLATDESSVIDIDEATAAIMGAIPQSLARFELLGAQEATDALSAIVSLCTQAGIVNNEVPALLEYLDAVNAEGTVSSEDLVAAIAQQENLPLLATALQIAPAAITELIDGVAAVRQFAVDHHDSWFDRSREHLTPLLPRPIEFSVVSELRERPVGTVDREASVGVASREMRPRILFDADRSKVYLRLPEQRLPIADDGTRGEITWRVSIEGTTKIYHTGSPWGDTSGFAESLDVHIERPVRELTVQDETNEITWTVPVLAHDDPALVFSSRGTNVTDKVALHHQSLIVVTPQDVTLTDVVSGDDIVADSETAVEGWDKWVARYLDVSHVTSLSAVEPGKNANMETLRSIDPRQRVRFLAPSEPVDFLKTTGGLPVHSESLIAEFPPTPSGRTE | not soluble
MTGEGYKQAIVVRRDLGMGRGKAAAQAAHASCEAVFLILESGRPEWRRWLEMWRLQGQAKVVLRVESLAELQEVYSKAVEEGLPASFVRDAGKTQLEPGTPTAAAVGPAPSRLVDRITGGLKLF | not soluble
MTGKILVIGSTGTIGTPLVKALVARGESVKAASRSGKPTNGAEGVRFDYTDHATFADAFDGVDRLFLMLAGGRLDTIDALTPVVEEAARRKVKIVFLSVLGVDADDSIPYRQIELKIIASGTPYVILRPNWFADNFHSYWKAGIEHGQIAVPGGEGKSSFIDVRDIADSAAAALTSDAFNGKAFNLTGPQAFGYAEAAALISQAIGKPVSYSAVSDDVFIGILTGAGVPQDYASFLASIFYPVREGWTAVVTGDAETLTGHAPRSLETYIADNLDRLKG | not soluble
MTGLLDGKRILVSGIITDSSIAFHIARVAQEQGAQLVLTGFDRLRLIQRITDRLPAKAPLLELDVQNEEHLASLAGRVTEAIGAGNKLDGVVHSIGFMPQTGMGINPFFDAPYADVSKGIHISAYSYASMAKALLPIMNPGGSIVGMDFDPSRAMPAYNWMTVAKSALESVNRFVAREAGKYGVRSNLVAAGPIRTLAMSAIVGGALGEEAGAQIQLLEEGWDQRAPIGWNMKDATPVAKTVCALLSDWLPATTGDIIYADGGAHTQLL | soluble
MTGPEPVPAGPPPDPTPPRRAGSVWAHVGQHFTEEAFDIVVIGAGRMGAACAFYLRQLAPGRSLLLVEEGGLPNEEGATILAPGVWTAQDIPAGQEAQAEWTREQLLGALGSGKTLEVEDRPLLHLLPAGEGSGLTPTLDALADFPEALALLDPARLPVARVDPRALTYRPGSLALLAAQQAIGQGAGLLLNTRAELVPGGVRLHRLTVTNTHQIVVHETRQIRAGVIIVAAGAAGPALVEQGLGLHTRHGRAYRQFPRLDLLSGAQTPVLRASGLTLRPQNGGYTLVPAIHHRDPHGYHPAGGSLTGVPTGLRRELLEDLVGLMDAVPALAGEGLELGRSSADVPGAWLALPGGRPDAPPQAEELAPGLHLLLGGPLADTLGLAAAHELAQRVSASLEHHHHHH | soluble
MTGRESNRIKDAEKKRVLDSTARQRRARKALEALEQDNYHDDPHADLVMSKKLPKFQDSLKTGKEKKGKRKGAEYFLVKYRKNFQQLLEEDKDKQPNYESAAAPAPQKPLRHFCAVCGNFSLYSCTACGTRYCCVRCLQTHQDTRCLKWTALEHHHHHH | not soluble
MTGRPEDSVIDIYQRHGAAWAKLRGDRLAEGGWLDRFCELLPATASVLDIGCGSGLPIARELVRRGFDVTGVDGASTMLALFRRNLPGTPAHLADMRELALGRRFDGLLAWDSFFHLSPADQRAMFRRFQAHAAAGAALMFTSGPAEGSAIGELAGDRLYHGSLGSDDYRALLDASGFEGVDHIVEDPTCGYRTIWLARQRRLEHHHHHH | not soluble
MTGSDISHILKEGELEKRSDNLLQFWKRKTCVLTTDSLNIYTDQQKKNKSKELKLQSIKKVDCVEHTGKFVYFTIVTTDNKEIDFRCSDEKNCWNAVIAIALVNFQNRKAIQGFKTQKESENTSLGQQERCMARAP | not soluble
MTHEYQDLITIFNDTFLEQFNTTLELGGDEPIYLPADDEHPHHRIIFARGFYASALHEIAHWCVAGPERRLMEDFGYWYEPDGRTEAVQAEFEKVEIRPQAYEWILATSAGFPFTVSCDNLHGDFEPDRLGFMQKVHKEVLGILEAGLPPRVKMLSDALRAFYQTKPLEASDFSVK | not soluble
